By Kd is commonly meant the constant that tells how readily two partners part at equilibrium. By stoichiometry N is commonly meant the number of molecules, sites or subunits per partner or assembly.

These results are taken from publication PMC4320653.

The target in one assay is TRBP (Homo sapiens) (UniProt Q15633). The following applies: cited from earlier work.
The target in assay [1] is human Dicer, wild type, full-length (human) (UniProt Q9UPY3). In words: ITC.

As for TRBP (from UniProt Q15633), the Kd in the assay with TRBP (Homo sapiens) was 54000 nM.

B1: TRBP3: third dsRBD of human TRBP with its N-terminal extension, residues 258-366 (domain or fragment)
chain: NRGPGCTWDSLRNSVGEKILSLRSCSLGSLGALGPACCRVLSELSEEQAFHVSYLDIEELSLSGLCQCLVELSTQPATVCHGSATTREAARGEAARRALQYLKIMAGSK
In assay [1], B1 had a Kd of 4.3 nM, a dH of -23.2 kcal/mol and a stoichiometry N of 1.35.

B2: human TRBP (isoform TRBP2, 366 residues), full-length, residues 1-366 (natural protein)
chain: MSEEEQGSGTTTGCGLPSIEQMLAANPGKTPISLLQEYGTRIGKTPVYDLLKAEGQAHQPNFTFRVTVGDTSCTGQGPSKKAAKHKAAEVALKHLKGGSMLEPALEDSSSFSPLDSSLPEDIPVFTAAAAATPVPSVVLTRSPPMELQPPVSPQQSECNPVGALQELVVQKGWRLPEYTVTQESGPAHRKEFTMTCRVERFIEIGSGTSKKLAKRNAAAKMLLRVHTVPLDARDGNEVEPDDDHFSIGVGSRLDGLRNRGPGCTWDSLRNSVGEKILSLRSCSLGSLGALGPACCRVLSELSEEQAFHVSYLDIEELSLSGLCQCLVELSTQPATVCHGSATTREAARGEAARRALQYLKIMAGSK
Regarding B2, in assay [1], the Kd was 2.8 nM, the dH is -15.9 kcal/mol and the stoichiometry N amounted to 0.84.
